From US20250296975A1 come the findings set out here.

The target of this experiment is His-tagged T-cell immunoreceptor with Ig and ITIM domains (TIGIT) (UniProt Q495A1). Kind of experiment: biolayer interferometry, His-tagged TIGIT. A general note: Biolayer interferometry detects binding as a change in optical thickness at a sensor tip.

B1: anti-TIGIT antibody TIG1 (antibody, from another filing, V domains shown)
VH: DVQLVESGGGLVQPGGSRKLSCAASGFTFSNFGMHWVRQAPEKGLEWVAFISSGSSSIYYADTVKGRFTISRDNPKNTLFLQMTSLRSEDTAMYYCARMRLDYYAMDYWGQGTSVTVSS
VL: DVQITQSPSYLAASPGETITINCRASKSISKYLAWYQEKPGKTNKLLIYSGSTLQSGIPSRFSGSGSGTDFTLTISSLEPEDFAMYYCQQHNEYPWTFGGGTKLEIK
Broadly, the Kd is the equilibrium constant for the complex coming apart. High values mean a looser complex, low ones a tighter complex. B1 came in with a Kd of 3.12 nM.
